Read-outs that look alike come from different tables or passages of the source. One block for each binder: values may come before it.
What was measured:
[1] = target: T1, Trop2 on human cancer cell lines (T-47D, HPAF II, HeLa NLR, OVMANA) (human, UniProt P09758 27-323); assay: flow cytometry on HPAF II cells, FITC anti-human IgG Fcγ secondary antibody, median fluorescence
T1 construct: whole, on cells; also called Tumor-associated calcium signal transducer 2
T1 sequence (looked up): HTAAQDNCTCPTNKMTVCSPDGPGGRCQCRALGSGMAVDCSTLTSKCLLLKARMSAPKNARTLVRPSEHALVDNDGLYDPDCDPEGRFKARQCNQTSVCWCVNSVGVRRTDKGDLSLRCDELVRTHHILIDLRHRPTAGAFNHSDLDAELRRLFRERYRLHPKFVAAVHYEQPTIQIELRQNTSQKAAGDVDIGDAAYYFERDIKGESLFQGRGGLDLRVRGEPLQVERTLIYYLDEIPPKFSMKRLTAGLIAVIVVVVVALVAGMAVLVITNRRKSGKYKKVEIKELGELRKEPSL
Description: (§1) Target cells were harvested and transferred into a 96 well round bottom plate (100,000 cells per well). […] After the staining, the cells were washed twice with FACS buffer to remove unbound molecules. […] After 30 minutes incubation at 4° C. the cells were washed twice with FACS buffer to remove unbound antibodies. Finally, the cells were resuspended in 100 μl FACS buffer and analyzed by flow cytometry using BD Canto II.

[2] = target: T1, Trop2 on human cancer cell lines …; assay: flow cytometry on OVMANA cells, FITC anti-human IgG Fcγ secondary antibody, median fluorescence
Description: as §1

[3] = target: T1, Trop2 on human cancer cell lines …; assay: flow cytometry on HeLa ST14 cells, FITC anti-human IgG Fcγ secondary antibody, median fluorescence
Description: as §1

[4] = target: T2, human CD3 on Jurkat NFAT reporter T cells (human, UniProt P07766 23-207); assay: flow cytometry on Jurkat NFAT reporter T cells (human CD3), 1:4 titration from 50 nM, FITC anti-human IgG Fcγ secondary antibody, median fluorescence; sample pre-incubated overnight with Matriptase (+M)
T2 construct: whole, on cells; also called CD3 on Jurkat T cells
T2 sequence (P07766 23-207): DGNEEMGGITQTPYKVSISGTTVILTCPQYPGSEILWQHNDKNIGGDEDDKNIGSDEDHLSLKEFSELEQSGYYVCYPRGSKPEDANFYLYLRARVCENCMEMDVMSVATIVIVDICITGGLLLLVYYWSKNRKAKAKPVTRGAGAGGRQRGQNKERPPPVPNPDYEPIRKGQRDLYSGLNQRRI
Description: (§2) Jurkat-NFAT reporter cells (GloResponse Jurkat NFAT-RE-luc2P; Promega #CS176501) are a human acute lymphatic leukemia reporter cell line with a NFAT promoter, expressing human CD3. The cells were cultured in RPMI1640, 2 g/l glucose, 2 g/l NaHCO₃, 10% FBS, 25 mM HEPES, 2 mM L-glutamin, 1×NEAA, 1× sodium-pyruvate at 0.1-0.5 mio cells per ml.
(§3) The next day, Jurkat cells were harvested and transferred into a 96 well round bottom plate (100,000 cells per well). […] After the staining, the cells were washed twice with FACS buffer to remove unbound molecules. […] After 30 minutes incubation at 4° C. the cells were washed twice with FACS buffer to remove unbound antibodies. Finally, the cells were resuspended in 100 μl FACS buffer and analyzed by flow cytometry using BD Canto II.

[5] = target: T2, human CD3 on Jurkat NFAT reporter T …; assay: flow cytometry on Jurkat NFAT reporter T cells (human CD3), 1:4 titration from 50 nM, FITC anti-human IgG Fcγ secondary antibody, median fluorescence; sample not treated with Matriptase
Description: as §2, §3

[6] = target: T1, Trop2 on human cancer cell lines …; assay: flow cytometry on T-47D cells, FITC anti-human IgG Fcγ secondary antibody, median fluorescence
Description: as §1

[7] = target: T2, human CD3 on Jurkat NFAT reporter T …; assay: flow cytometry on Jurkat NFAT reporter T cells (human CD3), 1:4 titration from 50 nM, FITC anti-human IgG Fcγ secondary antibody, median fluorescence; sample pre-incubated overnight with Matriptase (+M); remark: listed apart in the source
Description: (§4) Jurkat-NFAT reporter cells (GloResponse Jurkat NFAT-RE-luc2P; Promega #CS176501) are a human acute lymphatic leukemia reporter cell line with a NFAT promoter, expressing human CD3. The cells were cultured in RPMI1640, 2 g/l glucose, 2 g/l NaHCO₃, 10% FBS, 25 mM HEPES, 2 mM L-glutamin, 1×NEAA, 1×sodium-pyruvate at 0.1-0.5 mio cells per ml.
(§5) The next day, Jurkat cells were harvested and transferred into a 96 well round bottom plate (100′000 cells per well). […] After the staining, the cells were washed twice with FACS buffer to remove unbound molecules. […] After 30 min incubation at 4° C. the cells were washed twice with FACS buffer to remove unbound antibodies. Finally, the cells were resuspended in a 100 μl FACS buffer and analyzed by flow cytometry using BD Canto II.

[8] = target: T2, human CD3 on Jurkat NFAT reporter T …; assay: flow cytometry on Jurkat NFAT reporter T cells (human CD3), 1:4 titration from 50 nM, FITC anti-human IgG Fcγ secondary antibody, median fluorescence; sample not treated with Matriptase; remark: listed apart in the source
Description: as §4, §5

B2: Matriptase pre-cleaved IGF-1R proTCB (P1AH0943 after overnight incubation with human recombinant Matriptase) (bispecific antibody)
heavy 1: EIVLTQSPATLSLSPGERATLSCRASQSVSSYLAWYQQKPGQAPRLLIYDASKRATGIPARFSGSGSGTDFTLTISSLEPEDFAVYYCQQRSKWPPWTFGQGTKVESKSSASTKGPSVFPLAPSSKSTSGGTAALGCLVKDYFPEPVTVSWNSGALTSGVHTFPAVLQSSGLYSLSSVVTVPSSSLGTQTYICNVNHKPSNTKVDKKVEPKSCDKTHTCPPCPAPEAAGGPSVFLFPPKPKDTLMISRTPEVTCVVVDVSHEDPEVKFNWYVDGVEVHNAKTKPREEQYNSTYRVVSVLTVLHQDWLNGKEYKCKVSNKALGAPIEKTISKAKGQPREPQVCTLPPSRDELTKNQVSLSCAVKGFYPSDIAVEWESNGQPENNYKTTPPVLDSDGSFFLVSKLTVDKSRWQQGNVFSCSVMHEALHNHYTQKSLSLSPG
heavy 2: not shown
light 1: QAVVTQEPSLTVSPGGTVTLTCGSSTGAVTTSNYANWVQEKPGQAFRGLIGGTNKRAPGTPARFSGSLLGGKAALTLSGAQPEDEAEYYCALWYSNLWVFGGGTKLTVLGQPKAAPSVTLFPPSSKKLQANKATLVCLISDFYPGAVTVAWKADSSPVKAGVETTTPSKQSNNKYAASSYLSLTPEQWKSHRSYSCQVTHEGSTVEKTVAPTECS
light 2: QVELVESGGGVVQPGRSQRLSCAASGFTFSSYGMHWVRQAPGKGLEWVAIIWFDGSSTYYADSVRGRFTISRDNSKNTLYLQMNSLRAEDTAVYFCARELGRRYFDLWGRGTLVSVSSASVAAPSVFIFPPSDEQLKSGTASVVCLLNNFYPREAKVQWKVDNALQSGNSQESVTEQDSKDSTYSLSSTLTLSKADYEKHKVYACEVTHQGLSSPVTKSFNRGEC
notes: also called Matriptase pre-cleaved (+M) IGF-1R proTCB
EC50 (read off the curve) [7]: ~0.9 nM

B5: non-cleavable IGF-1R proTCB P1AH0969 (IGF-1R pro-TCB 2+1; non-cleavable) (bispecific antibody, human IgG1, lambda, L234A L235A)
heavy 1: B2 heavy 1
heavy 2: not shown
light 1: B2 light 1
light 2: B2 light 2
notes: H1L2 mask joined by a GS linker without a protease site; also called non-cleavable IGF-1R TCB construct; non-cleavable proTCB
binding result [8]: no binding (tested: 50 nM)

B6: non-cleavable Trop2 proTCB P1AI0691 (Trop2 pro-TCB 2+1; non-cleavable) (bispecific antibody, human IgG1, lambda, L234A L235A)
heavy 1: DIQMTQSPSSLSASVGDRVTITCKASQDVSIAVAWYQQKPGKAPKVLIYSASYRYTGVPDRFSGSGSGTDFTFTISSLQPEDIAVYYCQQHYITPLTFGGGTKVEIKSSASTKGPSVFPLAPSSKSTSGGTAALGCLVKDYFPEPVTVSWNSGALTSGVHTFPAVLQSSGLYSLSSVVTVPSSSLGTQTYICNVNHKPSNTKVDKKVEPKSCDKTHTCPPCPAPEAAGGPSVFLFPPKPKDTLMISRTPEVTCVVVDVSHEDPEVKFNWYVDGVEVHNAKTKPREEQYNSTYRVVSVLTVLHQDWLNGKEYKCKVSNKALGAPIEKTISKAKGQPREPQVCTLPPSRDELTKNQVSLSCAVKGFYPSDIAVEWESNGQPENNYKTTPPVLDSDGSFFLVSKLTVDKSRWQQGNVFSCSVMHEALHNHYTQKSLSLSPG
heavy 2: not shown
light 1: B2 light 1
light 2: QIQLVQSGHEVKKPGASVKVSCKASGYTFTNYGMNWVRQAPGQGLEWMGWINTKTGEPTYAEEFKGRFVFSLETSASTAYLQISSLKAEDMAMYFCGRGGYGSSYWYFDVWGQGTTVTVSSASVAAPSVFIFPPSDEQLKSGTASVVCLLNNFYPREAKVQWKVDNALQSGNSQESVTEQDSKDSTYSLSSTLTLSKADYEKHKVYACEVTHQGLSSPVTKSFNRGEC
notes: H1L2 mask joined by a GS linker without a protease site; also called non-cleavable proTCB
EC50 (read off the curve) [1]: ~2 nM
EC50 (read off the curve) [2]: ~3 nM
EC50 (read off the curve) [3]: ~2 nM
binding result [5]: no binding (tested: 50 nM)
EC50 (read off the curve) [6]: ~2 nM

Results, then the binder that gave them:

EC50 (read off the curve) [1]: ~1 nM
EC50 (read off the curve) [2]: ~1 nM
EC50 (read off the curve) [3]: ~1 nM
EC50 (read off the curve) [4]: ~1 nM
EC50 (read off the curve) [5]: ~1 nM
EC50 (read off the curve) [6]: ~0.9 nM
B1: classical Trop2 TCB P1AI0692 (unmasked) (bispecific antibody, human IgG1, lambda, L234A L235A)
heavy 1: B6 heavy 1
heavy 2: not shown
light 1: B2 light 1
light 2: B6 light 2
notes: Tested with and without Matriptase pre-treatment; no mask; also called unmasked Trop2 TCB; unmasked classical TCB

EC50 (read off the curve) [4]: ~0.9 nM
B3: Matriptase pre-cleaved Trop2 proTCB (P1AI0690 after overnight incubation with Matriptase) (bispecific antibody)
heavy 1: B6 heavy 1
heavy 2: not shown
light 1: B2 light 1
light 2: B6 light 2
notes: also called Matriptase pre-cleaved (+M) Trop2 proTCB

EC50 (read off the curve) [7]: ~0.8 nM
EC50 (read off the curve) [8]: ~0.7 nM
B4: classical IGF-1R TCB P1AH0975 (unmasked) (bispecific antibody, human IgG1, lambda, L234A L235A)
heavy 1: B2 heavy 1
heavy 2: not shown
light 1: B2 light 1
light 2: B2 light 2
notes: Tested with and without Matriptase pre-treatment; no mask; also called unmasked classical IGF-1R TCB

binding result [8]: no binding (tested: 50 nM)
B7: IGF-1R proTCB P1AH0943 (IGF-1R pro-TCB 2+1; matriptase; P035.093 PQARK H1L2 mask), not Matriptase pre-cleaved (bispecific antibody, human IgG1, lambda, L234A L235A)
heavy 1: B2 heavy 1
heavy 2: not shown
light 1: B2 light 1
light 2: B2 light 2
notes: Knob-into-hole 2+1 format with the anti-idiotypic H1L2 scFv mask fused through a PQARK linker to the VH of the CD3 Fab; also called not-Matriptase pre-cleaved IGF-1R proTCB; not pre-cleaved IGF-1R proTCB

EC50 (read off the curve) [1]: ~1 nM
EC50 (read off the curve) [2]: ~1 nM
EC50 (read off the curve) [3]: ~1 nM
binding result [5]: no binding (tested: 50 nM)
EC50 (read off the curve) [6]: ~2 nM
B8: Trop2 proTCB P1AI0690 (Trop2 pro-TCB 2+1; matriptase; P035.093 PQARK H1L2 mask), not Matriptase pre-cleaved (bispecific antibody, human IgG1, lambda, L234A L235A)
heavy 1: B6 heavy 1
heavy 2: not shown
light 1: B2 light 1
light 2: B6 light 2
notes: Knob-into-hole 2+1 format; also called masked Trop2 proTCB; not pre-cleaved Trop2 proTCB

Source: US20260035462A1 (Hoffmann-La Roche, published 2026)
